Here are results for 2 molecules from paper PMC3958441, “Isl1 and Pou4f2 Form a Complex to Regulate Target Genes in Developing Retinal Ganglion Cells” (PLoS ONE, 2014).

Assay in all cases: EMSA; EMSA: 20 mM Tris-HCl pH 7.5, 50 mM NaCl, 10 mM DTT, 1 mM EDTA, 5% glycerol, 200 ng dI/dC, 200 ng each protein in 20 ul, 4 C, 30 min; 8% PAGE, 1x TBE, 4 C
What all share (settings): protein: recombinant; tags: His (C-terminal); (radiolabel, Klenow fill-in); 5' overhang 1 nt at both ends before fill-in
In general terms: Mobility shift assays separate free from complexed probe on a gel.

One data set addresses T1, Pou4f2D4 (mouse, UniProt Q63934 169-411).
T1 sequence: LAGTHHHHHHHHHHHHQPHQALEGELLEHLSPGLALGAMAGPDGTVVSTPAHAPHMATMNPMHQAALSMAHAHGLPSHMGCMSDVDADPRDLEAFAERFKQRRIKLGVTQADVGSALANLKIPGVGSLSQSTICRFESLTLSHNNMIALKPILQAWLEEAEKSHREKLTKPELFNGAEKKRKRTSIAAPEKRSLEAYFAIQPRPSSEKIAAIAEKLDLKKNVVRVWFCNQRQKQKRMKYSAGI

The next data set deals with T2, Pou4f2D3 (mouse, UniProt Q63934 240-411).
T2 sequence: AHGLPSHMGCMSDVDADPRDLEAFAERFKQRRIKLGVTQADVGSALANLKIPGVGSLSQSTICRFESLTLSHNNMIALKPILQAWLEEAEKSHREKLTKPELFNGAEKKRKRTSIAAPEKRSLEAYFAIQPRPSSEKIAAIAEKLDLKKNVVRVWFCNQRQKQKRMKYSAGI

For a further data set, the target named is T3, Pou4f2D5 (mouse, UniProt Q63934 125-411).
T3 sequence: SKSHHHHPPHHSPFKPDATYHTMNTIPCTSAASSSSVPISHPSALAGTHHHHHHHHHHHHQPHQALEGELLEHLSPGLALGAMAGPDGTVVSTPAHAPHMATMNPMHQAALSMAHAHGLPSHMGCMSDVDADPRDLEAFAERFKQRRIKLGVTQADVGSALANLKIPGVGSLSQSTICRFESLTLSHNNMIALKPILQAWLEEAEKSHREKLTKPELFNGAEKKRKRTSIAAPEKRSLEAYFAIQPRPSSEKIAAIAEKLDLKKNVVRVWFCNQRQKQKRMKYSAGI

A further data set has as its target T4, Pou4f2D2 (mouse, UniProt Q63934 1-330).
T4 sequence: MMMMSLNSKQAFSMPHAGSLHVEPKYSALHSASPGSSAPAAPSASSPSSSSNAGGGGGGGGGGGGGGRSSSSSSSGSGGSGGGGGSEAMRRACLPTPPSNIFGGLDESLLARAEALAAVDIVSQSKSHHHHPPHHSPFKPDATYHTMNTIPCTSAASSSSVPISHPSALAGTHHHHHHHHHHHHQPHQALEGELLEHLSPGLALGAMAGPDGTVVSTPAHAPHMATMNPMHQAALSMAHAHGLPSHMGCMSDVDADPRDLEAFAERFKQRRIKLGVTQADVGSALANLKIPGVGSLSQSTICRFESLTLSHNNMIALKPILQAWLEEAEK

In the next data set the target is T5, Isl1D5 (mouse, UniProt P61372 74-349).
T5 sequence: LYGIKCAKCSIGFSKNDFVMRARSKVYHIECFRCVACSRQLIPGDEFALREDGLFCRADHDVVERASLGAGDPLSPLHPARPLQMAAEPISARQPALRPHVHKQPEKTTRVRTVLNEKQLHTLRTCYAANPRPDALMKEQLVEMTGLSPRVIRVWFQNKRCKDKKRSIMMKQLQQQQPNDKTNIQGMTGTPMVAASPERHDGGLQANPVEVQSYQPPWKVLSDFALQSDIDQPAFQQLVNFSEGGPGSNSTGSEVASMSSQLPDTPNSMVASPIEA

A further data set addresses T6, Isl1D3 (mouse, UniProt P61372 170-349).
T6 sequence: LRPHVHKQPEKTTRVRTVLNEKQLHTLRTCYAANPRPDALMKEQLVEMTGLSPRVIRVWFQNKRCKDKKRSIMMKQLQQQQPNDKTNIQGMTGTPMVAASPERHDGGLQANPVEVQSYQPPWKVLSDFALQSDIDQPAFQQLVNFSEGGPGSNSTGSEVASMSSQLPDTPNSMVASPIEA

B1: SBRN3(W) (dsDNA)
DNA 1: GCACACGACCCAATGAATTAATAACCGGGCTG
DNA 2: GCAGCCCGGTTATTAATTCATTGGGTCGTGTG
For the molecule B1, the binding result with Pou4f2D4 is listed as “binds”; with Pou4f2D3, “binds”; with Pou4f2D5, “binds”; with Pou4f2D2 it was “no binding”; with Isl1D5 it was “binds”; with Isl1D3, “binds”.

B2: CBRN3(W) (dsDNA)
DNA 1: GATCTCTCCTGCATAATTAATTACCCCCGGAT
DNA 2: GATCCGGGGGTAATTAATTATGCAGGAGAGAT
On to B2, for which the binding result with Pou4f2D4 is listed as “binds”; with Pou4f2D3, “binds”; in the data set with Pou4f2D5 it was “binds”; with Pou4f2D2, “no binding”; with Isl1D5 it was “binds”; with Isl1D3 it was “binds”.
